Experimental data from paper PMC10592472 (Cell reports, 2023).
Read-outs that look alike come from different tables or passages of the source.

Experiments:
[1] = molecular target: LFA1 (αLβ2) (mouse (endogenous in primary T cells)) (UniProt P24063); assay: single-molecule imaging
[2] = molecular target: LFA1 (αLβ2) (mouse (endogenous in primary T cells)) (UniProt P24063); assay: single-molecule imaging; remark: listed apart in the source
[3] = molecular target: LFA1 (αLβ2) (mouse (endogenous in primary T cells), UniProt P24063 24-1162; P11835 24-771); assay: flow cytometry on cells
LFA1 (αLβ2), sequence (P24063 24-1162, chain 1 of 2): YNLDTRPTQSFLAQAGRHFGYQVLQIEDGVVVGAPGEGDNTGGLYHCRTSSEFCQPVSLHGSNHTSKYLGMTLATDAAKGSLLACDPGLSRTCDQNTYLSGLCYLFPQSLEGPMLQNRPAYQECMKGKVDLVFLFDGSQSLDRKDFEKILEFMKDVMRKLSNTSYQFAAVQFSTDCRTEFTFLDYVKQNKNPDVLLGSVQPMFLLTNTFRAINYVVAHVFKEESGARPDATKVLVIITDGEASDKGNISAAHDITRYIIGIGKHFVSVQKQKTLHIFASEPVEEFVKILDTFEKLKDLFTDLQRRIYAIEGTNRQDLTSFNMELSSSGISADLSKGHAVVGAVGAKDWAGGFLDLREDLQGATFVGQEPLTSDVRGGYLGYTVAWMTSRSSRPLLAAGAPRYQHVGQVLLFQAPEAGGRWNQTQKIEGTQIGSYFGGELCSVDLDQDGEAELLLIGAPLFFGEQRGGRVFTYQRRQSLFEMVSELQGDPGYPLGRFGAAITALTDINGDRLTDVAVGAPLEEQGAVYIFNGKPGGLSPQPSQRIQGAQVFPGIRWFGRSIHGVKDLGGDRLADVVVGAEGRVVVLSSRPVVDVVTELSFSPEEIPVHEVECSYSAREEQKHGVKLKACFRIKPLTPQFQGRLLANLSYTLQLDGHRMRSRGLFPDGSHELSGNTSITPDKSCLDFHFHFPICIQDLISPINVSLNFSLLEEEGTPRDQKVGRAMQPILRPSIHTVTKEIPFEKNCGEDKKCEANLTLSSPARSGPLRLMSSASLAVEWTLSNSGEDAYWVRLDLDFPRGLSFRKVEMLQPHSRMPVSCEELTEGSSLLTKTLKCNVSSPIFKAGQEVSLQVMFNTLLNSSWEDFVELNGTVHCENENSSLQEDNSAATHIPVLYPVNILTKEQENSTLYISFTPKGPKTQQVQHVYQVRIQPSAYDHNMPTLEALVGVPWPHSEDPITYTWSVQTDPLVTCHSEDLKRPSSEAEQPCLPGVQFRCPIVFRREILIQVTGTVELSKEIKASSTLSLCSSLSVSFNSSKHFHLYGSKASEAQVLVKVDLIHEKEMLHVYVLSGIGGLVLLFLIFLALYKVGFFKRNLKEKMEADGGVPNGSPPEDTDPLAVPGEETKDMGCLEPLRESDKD
LFA1 (αLβ2), sequence (P11835 24-771, chain 2 of 2): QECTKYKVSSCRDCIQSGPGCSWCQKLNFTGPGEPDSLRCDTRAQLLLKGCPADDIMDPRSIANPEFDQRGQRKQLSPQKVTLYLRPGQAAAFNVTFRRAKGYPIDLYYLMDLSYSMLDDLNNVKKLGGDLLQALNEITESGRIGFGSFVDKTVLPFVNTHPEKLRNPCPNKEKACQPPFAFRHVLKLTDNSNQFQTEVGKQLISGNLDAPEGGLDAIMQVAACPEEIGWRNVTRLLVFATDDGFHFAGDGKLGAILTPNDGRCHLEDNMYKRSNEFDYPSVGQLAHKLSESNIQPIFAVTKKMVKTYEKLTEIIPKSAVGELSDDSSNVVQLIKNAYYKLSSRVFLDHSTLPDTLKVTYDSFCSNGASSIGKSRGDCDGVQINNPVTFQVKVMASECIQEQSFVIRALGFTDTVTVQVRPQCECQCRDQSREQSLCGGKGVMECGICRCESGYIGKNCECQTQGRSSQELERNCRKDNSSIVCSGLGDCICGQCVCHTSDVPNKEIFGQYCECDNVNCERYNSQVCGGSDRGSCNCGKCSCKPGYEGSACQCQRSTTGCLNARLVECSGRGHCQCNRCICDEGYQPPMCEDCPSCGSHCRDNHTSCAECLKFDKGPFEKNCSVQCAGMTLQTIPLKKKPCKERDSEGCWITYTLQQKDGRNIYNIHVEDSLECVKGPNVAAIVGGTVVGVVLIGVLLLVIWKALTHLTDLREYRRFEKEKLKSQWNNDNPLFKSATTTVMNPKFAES

LFA1 (αLβ2) (mouse (endogenous in primary T cells)), sequence (P24063 24-1162, chain 1 of 2): as the sequence (P24063 24-1162, chain 1 of 2) above
LFA1 (αLβ2) (mouse (endogenous in primary T cells)), sequence (P11835 24-771, chain 2 of 2, further chain): as the sequence (P11835 24-771, chain 2 of 2) above

Molecule: mouse ICAM1-GPI (from UniProt P13597 28-537) (ligand)
- koff [1]: 0.398 s⁻¹
- koff [2]: 0.03 s⁻¹

B1: Mouse ICAM1-Fc (Fc fusion, UniProt P13597 28-485, looked up)
chain: QVSIHPREAFLPQGGSVQVNCSSSCKEDLSLGLETQWLKDELESGPNWKLFELSEIGEDSSPLCFENCGTVQSSASATITVYSFPESVELRPLPAWQQVGKDLTLRCHVDGGAPRTQLSAVLLRGEEILSRQPVGGHPKDPKEITFTVLASRGDHGANFSCRTELDLRPQGLALFSNVSEARSLRTFDLPATIPKLDTPDLLEVGTQQKLFCSLEGLFPASEARIYLELGGQMPTQESTNSSDSVSATALVEVTEEFDRTLPLRCVLELADQILETQRTLTVYNFSAPVLTLSQLEVSEGSQVTVKCEAHSGSKVVLLSGVEPRPPTPQVQFTLNASSEDHKRSFFCSAALEVAGKFLFKNQTLELHVLYGPRLDETDCLGNWTWQEGSQQTLKCQAWGNPSPKMTCRRKADGALLPIGVVKSVKQEMNGTYVCHAFSSHGNVTRNVYLTVLYHSQNN
- fold binding against WT T cells (Rasa3/Sipa1-KO T cells, Mn2+) [3]: 2 fold
